± gives the uncertainty stated by the source.

The nature of this data set: abundance fitness (aPCA) (normalised: wild type 0, dead -1); higher = more abundant; growth selection in yeast, the domain comes from the species named. Conditions: Saccharomyces cerevisiae (strain ATCC 204508 / S288c).
In the case of “E3 ubiquitin-protein ligase RSP5 D361K, P39940”, the abundance fitness was -0.25 ± 0.06.
“E3 ubiquitin-protein ligase RSP5 D361L, P39940” showed an abundance fitness of -0.641 ± 0.056.
“E3 ubiquitin-protein ligase RSP5 D361N, P39940”: the abundance fitness is -0.304 ± 0.085.
With “E3 ubiquitin-protein ligase RSP5 D361P, P39940”, the abundance fitness was -0.516 ± 0.12.
Next, “E3 ubiquitin-protein ligase RSP5 D361Q, P39940”: -0.305 ± 0.086; “E3 ubiquitin-protein ligase RSP5 D361S, P39940”: -0.409 ± 0.054.
In turn, “E3 ubiquitin-protein ligase RSP5 D361T, P39940” showed an abundance fitness of -0.562 ± 0.065.
As for “E3 ubiquitin-protein ligase RSP5 D361V, P39940”, the abundance fitness is -0.607 ± 0.043.
Turning to “E3 ubiquitin-protein ligase RSP5 D361Y, P39940”, the abundance fitness was -0.594 ± 0.062.
The substance “E3 ubiquitin-protein ligase RSP5 E332A, P39940” came in with an abundance fitness of 0.03 ± 0.051.
Consider “E3 ubiquitin-protein ligase RSP5 E332C, P39940”, for which the abundance fitness is -0.116 ± 0.08.
In turn, “E3 ubiquitin-protein ligase RSP5 E332D, P39940” had an abundance fitness of 0.038 ± 0.074.
For the substance “E3 ubiquitin-protein ligase RSP5 E332F, P39940”, the abundance fitness was -0.165 ± 0.12.
For “E3 ubiquitin-protein ligase RSP5 E332G, P39940”, the abundance fitness is -0.066 ± 0.046.
As to “E3 ubiquitin-protein ligase RSP5 E332H, P39940”, the abundance fitness is -0.551 ± 0.13.
In the case of “E3 ubiquitin-protein ligase RSP5 E332I, P39940”, the abundance fitness was -0.225 ± 0.087.
The substance “E3 ubiquitin-protein ligase RSP5 E332K, P39940” came in with an abundance fitness of -0.046 ± 0.064.
Regarding “E3 ubiquitin-protein ligase RSP5 E332L, P39940”, the abundance fitness is -0.459 ± 0.051.
Turning to “E3 ubiquitin-protein ligase RSP5 E332M, P39940”, the abundance fitness is -0.093 ± 0.069.
“E3 ubiquitin-protein ligase RSP5 E332P, P39940” came in with an abundance fitness of -0.128 ± 0.057.
Regarding “E3 ubiquitin-protein ligase RSP5 E332Q, P39940”, the abundance fitness was -0.359 ± 0.061.
Take “E3 ubiquitin-protein ligase RSP5 E332R, P39940”: the abundance fitness is -0.36 ± 0.043.
Turning to “E3 ubiquitin-protein ligase RSP5 E332S, P39940”, the abundance fitness was -0.179 ± 0.053.
On to “E3 ubiquitin-protein ligase RSP5 E332T, P39940”, for which the abundance fitness was -0.14 ± 0.069.
“E3 ubiquitin-protein ligase RSP5 E332V, P39940” came in with an abundance fitness of -0.07 ± 0.047.
Next, “E3 ubiquitin-protein ligase RSP5 E332W, P39940”: -0.493 ± 0.046.
Regarding “E3 ubiquitin-protein ligase RSP5 E332Y, P39940”, the abundance fitness is -0.184 ± 0.066.
As for “E3 ubiquitin-protein ligase RSP5 E338A, P39940”, the abundance fitness was -0.333 ± 0.056.
The same measure for “E3 ubiquitin-protein ligase RSP5 E338C, P39940”: -0.476 ± 0.16; for “E3 ubiquitin-protein ligase RSP5 E338D, P39940”: -0.022 ± 0.13; for “E3 ubiquitin-protein ligase RSP5 E338F, P39940”: -0.73 ± 0.14.
As to “E3 ubiquitin-protein ligase RSP5 E338G, P39940”, the abundance fitness was -0.454 ± 0.045.
The same measure for “E3 ubiquitin-protein ligase RSP5 E338H, P39940”: -0.349 ± 0.1.
As for “E3 ubiquitin-protein ligase RSP5 E338K, P39940”, the abundance fitness was -0.463 ± 0.049.
Next, “E3 ubiquitin-protein ligase RSP5 E338L, P39940”: -0.499 ± 0.044; “E3 ubiquitin-protein ligase RSP5 E338M, P39940”: -0.402 ± 0.047; “E3 ubiquitin-protein ligase RSP5 E338N, P39940”: -0.501 ± 0.09.
The same measure for “E3 ubiquitin-protein ligase RSP5 E338P, P39940”: -0.874 ± 0.083; for “E3 ubiquitin-protein ligase RSP5 E338Q, P39940”: -0.027 ± 0.065; for “E3 ubiquitin-protein ligase RSP5 E338R, P39940”: -0.626 ± 0.045.
Regarding “E3 ubiquitin-protein ligase RSP5 E338S, P39940”, the abundance fitness was -0.19 ± 0.046.
Next, “E3 ubiquitin-protein ligase RSP5 E338V, P39940”: -0.278 ± 0.053.
In turn, “E3 ubiquitin-protein ligase RSP5 E338W, P39940” gave an abundance fitness of -0.978 ± 0.11.
“E3 ubiquitin-protein ligase RSP5 E338Y, P39940” returned an abundance fitness of -0.632 ± 0.075.
Next, “E3 ubiquitin-protein ligase RSP5 E344A, P39940”: -0.144 ± 0.045; “E3 ubiquitin-protein ligase RSP5 E344C, P39940”: -0.264 ± 0.097.
In the case of “E3 ubiquitin-protein ligase RSP5 E344D, P39940”, the abundance fitness is 0.149 ± 0.087.
In turn, “E3 ubiquitin-protein ligase RSP5 E344F, P39940” returned an abundance fitness of -0.309 ± 0.072.
The substance “E3 ubiquitin-protein ligase RSP5 E344G, P39940” came in with an abundance fitness of -0.038 ± 0.045.
The same measure for “E3 ubiquitin-protein ligase RSP5 E344H, P39940”: 0.116 ± 0.16.
Next, “E3 ubiquitin-protein ligase RSP5 E344I, P39940”: -0.215 ± 0.091; “E3 ubiquitin-protein ligase RSP5 E344K, P39940”: -0.222 ± 0.063; “E3 ubiquitin-protein ligase RSP5 E344L, P39940”: -0.31 ± 0.047.
Regarding “E3 ubiquitin-protein ligase RSP5 E344M, P39940”, the abundance fitness was -0.103 ± 0.06.
The same measure for “E3 ubiquitin-protein ligase RSP5 E344N, P39940”: -0.032 ± 0.081.
“E3 ubiquitin-protein ligase RSP5 E344P, P39940” displayed an abundance fitness of -0.428 ± 0.071.
As to “E3 ubiquitin-protein ligase RSP5 E344Q, P39940”, the abundance fitness was -0.081 ± 0.053.
Consider “E3 ubiquitin-protein ligase RSP5 E344R, P39940”, for which the abundance fitness was -0.256 ± 0.047.
In turn, “E3 ubiquitin-protein ligase RSP5 E344S, P39940” displayed an abundance fitness of -0.168 ± 0.048.
“E3 ubiquitin-protein ligase RSP5 E344T, P39940” showed an abundance fitness of -0.088 ± 0.051.
The same measure for “E3 ubiquitin-protein ligase RSP5 E344V, P39940”: -0.308 ± 0.054; for “E3 ubiquitin-protein ligase RSP5 E344W, P39940”: -0.338 ± 0.046; for “E3 ubiquitin-protein ligase RSP5 F341A, P39940”: -0.072 ± 0.049.
Next, “E3 ubiquitin-protein ligase RSP5 F341C, P39940”: 0.051 ± 0.069; “E3 ubiquitin-protein ligase RSP5 F341E, P39940”: 0.068 ± 0.064; “E3 ubiquitin-protein ligase RSP5 F341G, P39940”: -0.284 ± 0.044.
With “E3 ubiquitin-protein ligase RSP5 F341I, P39940”, the abundance fitness was -0.027 ± 0.092.
Turning to “E3 ubiquitin-protein ligase RSP5 F341N, P39940”, the abundance fitness came out at 0.189 ± 0.11.
The substance “E3 ubiquitin-protein ligase RSP5 F341P, P39940” showed an abundance fitness of -0.669 ± 0.082.
For the substance “E3 ubiquitin-protein ligase RSP5 F341R, P39940”, the abundance fitness was -0.053 ± 0.045.
As for “E3 ubiquitin-protein ligase RSP5 F341S, P39940”, the abundance fitness is -0.066 ± 0.06.
Regarding “E3 ubiquitin-protein ligase RSP5 F341T, P39940”, the abundance fitness came to 0.003 ± 0.067.
With “E3 ubiquitin-protein ligase RSP5 F341V, P39940”, the abundance fitness came to 0.019 ± 0.043.
The substance “E3 ubiquitin-protein ligase RSP5 F341W, P39940” yielded an abundance fitness of -0.064 ± 0.056.
The same measure for “E3 ubiquitin-protein ligase RSP5 F341Y, P39940”: 0.048 ± 0.054.
The same measure for “E3 ubiquitin-protein ligase RSP5 F349A, P39940”: -0.708 ± 0.047; for “E3 ubiquitin-protein ligase RSP5 F349G, P39940”: -0.703 ± 0.043.
Turning to “E3 ubiquitin-protein ligase RSP5 F349I, P39940”, the abundance fitness was -0.814 ± 0.1.
Turning to “E3 ubiquitin-protein ligase RSP5 F349K, P39940”, the abundance fitness is -0.837 ± 0.13.
Turning to “E3 ubiquitin-protein ligase RSP5 F349L, P39940”, the abundance fitness was -0.648 ± 0.055.
In turn, “E3 ubiquitin-protein ligase RSP5 F349M, P39940” returned an abundance fitness of -0.662 ± 0.15.
Next, “E3 ubiquitin-protein ligase RSP5 F349P, P39940”: -0.804 ± 0.08; “E3 ubiquitin-protein ligase RSP5 F349R, P39940”: -0.937 ± 0.051.
“E3 ubiquitin-protein ligase RSP5 F349S, P39940” came in with an abundance fitness of -0.83 ± 0.057.
Next, “E3 ubiquitin-protein ligase RSP5 F349V, P39940”: -0.739 ± 0.044; “E3 ubiquitin-protein ligase RSP5 F349W, P39940”: -0.008 ± 0.052.
For “E3 ubiquitin-protein ligase RSP5 F349Y, P39940”, the abundance fitness worked out at 0.086 ± 0.072.
As for “E3 ubiquitin-protein ligase RSP5 G324A, P39940”, the abundance fitness was 0.004 ± 0.084.
“E3 ubiquitin-protein ligase RSP5 G324C, P39940”: the abundance fitness amounted to 0.204 ± 0.12.
The same measure for “E3 ubiquitin-protein ligase RSP5 G324D, P39940”: 0.06 ± 0.065.
As to “E3 ubiquitin-protein ligase RSP5 G324E, P39940”, the abundance fitness came to 0.216 ± 0.071.
